The values below come from US20250043012A1.

The test has as its target human EGFR (protein used in SPR, ELISA and BLI) (human) (UniProt P00533). Briefly: SPR. Background: Surface plasmon resonance follows binding to a sensor surface in real time, without labels.

B1: ER-2b (antibody, part only; not given: Constant region, common trastuzumab light chain, part only)
heavy chain, part: EVQLVESGGGLVQPGGSLRLSCAASGFNIYYAAMHWVRQAPGKGLEWVAFISPYYSYTSYADSVKGRFTISADTSKNTAYLQMNSLRAEDTAVYYCARYFHSSWYESSSPRAYYPGMDYWGQGTLVTVSS
By koff is commonly meant the rate constant with which the complex falls apart. Low values mean slow dissociation, high ones fast dissociation. A word on the kon: it is a measure of how fast the partners come together. A high value points to fast association. Molecule B1 registered a koff of 5e-05 s⁻¹ and an on-rate (kon) of 280000 M⁻¹ s⁻¹.
